Test results: patent WO2018038096A1

Columns and labels:
[1] = molecular target: HA of Perth/16 (H3N2) virus (influenza A virus A/Perth/16/2009 (H3N2)); assay: cell-based or functional assay
[2] = molecular target: HA of A/California/04/2009 (H1N1pdm09) (influenza A virus A/California/04/2009 (H1N1pdm09)); assay: cell-based or functional assay
[3] = molecular target: HA of A/California/04/2009 (H1N1pdm09) (influenza A virus A/California/04/2009 (H1N1pdm09))
[4] = molecular target: three viruses, CA04, Egypt, and Anhui/1; assay: cell-based or functional assay
[5] = molecular target: recombinant HA protein of A/Perth/16/2009 (H3N2) (influenza A virus A/Perth/16/2009 (H3N2))
[6] = molecular target: recombinant HA protein of A/Netherland/219/2003 (H7N7) (influenza A virus A/Netherland/219/2003 (H7N7))
[7] = molecular target: recombinant HA protein of Egypt (H5N1 type) (influenza A virus, 'Egypt' (H5N1))
[8] = molecular target: recombinant HA protein of A/California/07/2009 (H1N1pdm09) (influenza A virus A/California/07/2009 (H1N1pdm09))

Row | Molecule | IC 50, neutralization test 1 (Pre), CPE on MDCK cells [1] [µg/mL] | IC 50, neutralization test 1 (Pre), CPE on MDCK cells [2] [µg/mL] | apparent rate constant k obs, fold over that of S9-1-10/5-1 [3] [fold] | IC 50, neutralization test 2 (Post), CPE on MDCK cells [4] [µg/mL] | Kd [5] [nM] | Kd [6] [nM] | Kd [7] [nM] | Kd [8] [nM]
1 | CR9114 (antibody) | 25 | 7.4 | 11.6 | – | – | – | – | –
2 | S9-1-10/5-1 (antibody, V domains shown) VH: QLHLQESGPGLLKPSATLSLTCTVSGGSMNNYYWSWVRQAPGKGLEWIGYIFHSGSTNYSPPLKSRVTISIDTATNQFFLRLNSVTAADTAVYYCARMSRGVFSSSRFFGLDVWGRGTAVAVSS VL: EIVLTQSPATLSVSPGERATLSCRASQSVASNLAWYQQKPGQAPRLLISAASTRATDIPARFSGSGSGTEFTLTISSLQSEDFAVYYCQQYNNWLSFTFGPGTKVDMKG | – | – | – | 0.55 to 8.8 | 34 | 0.9 | 0.14 | 0.0085
